In US10081665B2, “Peptides and combination of peptides for use in immunotherapy against various tumors” (immatics biotechnologies GmbH, priority 2015, dated 2018):

Legend:
HLA-A*02:01 = HLA-A*02:01 (Homo sapiens, UniProt P04439, D140Y/D185E/D98H/E176V/E277Q/G131W/G231S/I119V/I121R/I166T/I218V/L300P/L318F/N151K/N90K/P208A/P217A/Q86G/Q94H/R138H/R169H/T345S); test: MHC binding assay (UV-ligand exchange, beta2m ELISA); details: binding to HLA-A*02:01, β2m ELISA
Method in brief: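 Peptide-MHC complexes made by UV-ligand exchange of a UV-cleavable peptide for test peptide; exchange yield measured by β2m ELISA on streptavidin-coated plates with samples diluted 100-fold, HRP anti-β2m and TMB read at 450 nm. Refolded HLA-A*02:01/MLA-001 monomers (15-500 ng/ml) served as standards.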

CD8+ T cells = test: In vitro immunogenicity: T-cell priming with aAPCs loaded with peptide/MHC complexes and anti-CD28, pMHC multimer readout; assay type: cell-based, human; details: for Wells positive [%]: in vitro immunogenicity, HLA-A*02 restricted peptides, percentage of positive wells and donors (among evaluable); for in vitro immunogenicity: donors: positive donors; for in vitro immunogenicity: donors / in vitro immunogenicity: wells: CD8+ T cells of healthy HLA-A*02 donors, three stimulation cycles, multimer staining; for in vitro immunogenicity: wells: positive wells
Text: In order to obtain information regarding the immunogenicity of the TUMAPs of the present invention, the inventors performed investigations using an in vitro T-cell priming assay based on repeated stimulations of CD8+ T cells with artificial antigen presenting cells (aAPCs) loaded with peptide/MHC complexes and anti-CD28 antibody.
In order to perform in vitro stimulations by artificial antigen presenting cells loaded with peptide-MHC complex (pMHC) and anti-CD28 antibody, the inventors first isolated CD8+ T cells from fresh HLA-A*02 leukapheresis products via positive selection using CD8 microbeads (Miltenyi Biotec, Bergisch-Gladbach, Germany) of healthy donors obtained from the University clinics Mannheim, Germany, after informed consent. PBMCs and isolated CD8+ lymphocytes were incubated in T-cell medium (TCM) until use consisting of RPMI-Glutamax (Invitrogen, Karlsruhe, Germany) supplemented with 10% heat inactivated human AB serum (PAN-Biotech, Aidenbach, Germany), 100 U/ml Penicillin/100 μg/ml Streptomycin (Cambrex, Cologne, Germany), 1 mM sodium pyruvate (CC Pro, Oberdorla, Germany), 20 μg/ml Gentamycin (Cambrex). 2.5 ng/ml IL-7 (PromoCell, Heidelberg, Germany) and 10 U/ml IL-2 (Novartis Pharma, Nürnberg, Germany) were also added to the TCM at this step. Generation of pMHC/anti-CD28 coated beads, T-cell stimulations and readout was performed in a highly defined in vitro system using four different pMHC molecules per stimulation condition and 8 different pMHC molecules per readout condition.
The purified co-stimulatory mouse IgG2a anti human CD28 Ab 9.3 (Jung et al., 1987) was chemically biotinylated using Sulfo-N-hydroxysuccinimidobiotin as recommended by the manufacturer (Perbio, Bonn, Germany). Beads used were 5.6 μm diameter streptavidin coated polystyrene particles (Bangs Laboratories, Illinois, USA).
pMHC used for positive and negative control stimulations were A*0201/MLA-001 (peptide […] (SEQ ID NO. 289) from modified Melan-A/MART-1) and A*0201/DDX5-001 ([…] from DDX5, SEQ ID NO. 290), respectively.
800,000 beads/200 μl were coated in 96-well plates in the presence of 4×12.5 ng different biotin-pMHC, washed and 600 ng biotin anti-CD28 were added subsequently in a volume of 200 μl. Stimulations were initiated in 96-well plates by co-incubating 1×10^6 CD8+ T cells with 2×10^5 washed coated beads in 200 μl TCM supplemented with 5 ng/ml IL-12 (PromoCell) for 3 days at 37° C. Half of the medium was then exchanged by fresh TCM supplemented with 80 U/ml IL-2 and incubating was continued for 4 days at 37° C. This stimulation cycle was performed for a total of three times. For the pMHC multimer readout using 8 different pMHC molecules per condition, a two-dimensional combinatorial coding approach was used as previously described (Andersen et al., 2012) with minor modifications encompassing coupling to 5 different fluorochromes. Finally, multimeric analyses were performed by staining the cells with Live/dead near IR dye (Invitrogen, Karlsruhe, Germany), CD8-FITC antibody clone SK1 (BD, Heidelberg, Germany) and fluorescent pMHC multimers. For analysis, a BD LSRII SORP cytometer equipped with appropriate lasers and filters was used. Peptide specific cells were calculated as percentage of total CD8+ cells. Evaluation of multimeric analysis was done using the FlowJo software (Tree Star, Oreg., USA). In vitro priming of specific multimer+CD8+ lymphocytes was detected by comparing to negative control stimulations.

Row | Substance | Peptide exchange (MHC class I binding score, peptide exchange yield) (HLA-A*02:01) | Wells positive [%] (CD8+ T cells) | in vitro immunogenicity: donors (CD8+ T cells) | in vitro immunogenicity: wells (CD8+ T cells)
1 | 263 (SIIEYLPTL; listed as Homo sapiens) [compound 263] | +++ (≥50 = +++) | + (<20% = +) | – | –
2 | 39 (YLEDGFAYV; listed as Homo sapiens) [compound 39] | +++ (≥50 = +++) | ++++ (>=70% = ++++) | – | –
3 | 66 (AMFPDTIPRV; listed as Homo sapiens) [compound 66] | ++ (≥20% = ++) | + (<20% = +) | – | –
4 | 267 (YLLDMPLWYL; listed as Homo sapiens) [compound 267] | +++ (≥50 = +++) | + (<20% = +) | – | –
5 | 121 (ALYVQAPTV; listed as Homo sapiens) [compound 121] | ++ (≥20% = ++) | + (<20% = +) | – | –
6 | 89 (SLAETIFIV; listed as Homo sapiens) [compound 89] | +++ (≥50 = +++) | + (<20% = +) | – | –
7 | 203 (FLFVDPELV; listed as Homo sapiens) [compound 203] | ++ (≥20% = ++) | +++ (50%-69% = +++) | – | –
8 | 257 (KLIDHQGLYL; listed as Homo sapiens) [compound 257] | +++ (≥50 = +++) | + (<20% = +) | – | –
9 | 29 (KMISAIPTL; listed as Homo sapiens) [compound 29] | ++ (≥20% = ++) | + (<20% = +) | – | –
10 | 242 (KLQEEIPVL; listed as Homo sapiens) [compound 242] | +++ (≥50 = +++) | + (<20% = +) | – | –
11 | 35 (VIIKGLEEI; listed as Homo sapiens) [compound 35] | ++ (≥20% = ++) | + (<20% = +) | – | –
12 | 9 (SLITGQDLLSV; listed as Homo sapiens) [compound 9] | +++ (≥50 = +++) | + (<20% = +) | – | –
13 | 260 (ALNESLVEC; listed as Homo sapiens) [compound 260] | +++ (≥50 = +++) | + (<20% = +) | – | –
14 | 287 (KIQEILTQV; listed as Homo sapiens) [compound 287] | – | – | +++ (50%-69% =+++) | + (<20% = +)
15 | 4 (VLFGELPAL; listed as Homo sapiens) [compound 4] | +++ (≥50 = +++) | + (<20% = +) | – | –
16 | 102 (GLYPVTLVGV; listed as Homo sapiens) [compound 102] | +++ (≥50 = +++) | + (<20% = +) | – | –
17 | 82 (ILAEEPIYIRV; listed as Homo sapiens) [compound 82] | +++ (≥50 = +++) | +++ (50%-69% = +++) | – | –
18 | 101 (SLLEVNEASSV; listed as Homo sapiens) [compound 101] | +++ (≥50 = +++) | + (<20% = +) | – | –
19 | 255 (FLMKNSDLYGA; listed as Homo sapiens) [compound 255] | +++ (≥50 = +++) | + (<20% = +) | – | –

Row | Substance | Peptide exchange (MHC class I binding score, peptide exchange yield) (HLA-A*02:01) | Wells positive [%] (CD8+ T cells) | in vitro immunogenicity: donors (CD8+ T cells) | in vitro immunogenicity: wells (CD8+ T cells)
20 | 264 (TLHDQVHLL; listed as Homo sapiens) [compound 264] | ++ (≥20% = ++) | + (<20% = +) | – | –
21 | 18 (KTASINQNV; listed as Homo sapiens) [compound 18] | ++ (≥20% = ++) | +++ (50%-69% = +++) | – | –
22 | 236 (KMSELQTYV; listed as Homo sapiens) [compound 236] | +++ (≥50 = +++) | + (<20% = +) | – | –
23 | 14 (YTFSGDVQL; listed as Homo sapiens) [compound 14] | +++ (≥50 = +++) | + (<20% = +) | – | –
24 | 288 (SLYKGLLSV; listed as Homo sapiens) [compound 288] | – | – | ++++ (>= 70% = ++++) | ++ (21%-49% = ++)
25 | 218 (SLTGANITV; listed as Homo sapiens) [compound 218] | +++ (≥50 = +++) | – | – | –
26 | 140 (FLDSQITTV; listed as Homo sapiens) [compound 140] | +++ (≥50 = +++) | – | – | –
27 | 248 (VLMQDSRLYL; listed as Homo sapiens) [compound 248] | +++ (≥50 = +++) | – | – | –
28 | 138 (GIINKLVTV; listed as Homo sapiens) [compound 138] | ++ (≥20% = ++) | – | – | –
29 | 210 (GLAGDNIYL; listed as Homo sapiens) [compound 210] | +++ (≥50 = +++) | – | – | –
30 | 224 (LLFDWSGTGRADA; listed as Homo sapiens) [compound 224] | +++ (≥50 = +++) | – | – | –
31 | 219 (GVVPTIQKV; listed as Homo sapiens) [compound 219] | ++ (≥20% = ++) | – | – | –
32 | 75 (ALLDGALQL; listed as Homo sapiens) [compound 75] | +++ (≥50 = +++) | – | – | –
33 | 258 (QLVQRVASV; listed as Homo sapiens) [compound 258] | ++ (≥20% = ++) | – | – | –
34 | 12 (RLLDPKTIFL; listed as Homo sapiens) [compound 12] | +++ (≥50 = +++) | – | – | –
35 | 194 (KLLEEVQLL; listed as Homo sapiens) [compound 194] | ++ (≥20% = ++) | – | – | –
36 | 226 (SLAGNLQEL; listed as Homo sapiens) [compound 226] | +++ (≥50 = +++) | – | – | –
37 | 124 (ALLLRLFTI; listed as Homo sapiens) [compound 124] | ++ (≥20% = ++) | – | – | –
